Measurements published in patent publication US20260151494A1.

target: human serum albumin (human) (UniProt P02768); experiment: primary ELISA screen, HSA negative control
Sequence (P02768 25-609 limits assumed): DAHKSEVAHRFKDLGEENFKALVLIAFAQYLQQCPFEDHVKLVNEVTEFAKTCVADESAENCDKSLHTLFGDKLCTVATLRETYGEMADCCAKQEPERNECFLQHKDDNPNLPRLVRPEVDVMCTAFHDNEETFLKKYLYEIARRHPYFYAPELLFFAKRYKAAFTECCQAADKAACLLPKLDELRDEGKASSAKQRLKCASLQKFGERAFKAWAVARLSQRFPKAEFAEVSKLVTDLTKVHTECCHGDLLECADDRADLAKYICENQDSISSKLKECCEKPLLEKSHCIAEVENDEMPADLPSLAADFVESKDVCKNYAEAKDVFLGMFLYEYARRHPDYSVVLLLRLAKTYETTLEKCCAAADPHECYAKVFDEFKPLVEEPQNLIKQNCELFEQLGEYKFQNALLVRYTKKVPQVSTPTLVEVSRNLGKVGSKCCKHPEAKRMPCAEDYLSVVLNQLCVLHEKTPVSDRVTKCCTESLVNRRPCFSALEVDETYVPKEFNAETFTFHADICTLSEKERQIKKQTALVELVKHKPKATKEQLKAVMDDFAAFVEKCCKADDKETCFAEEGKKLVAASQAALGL

RLU [RLU] | Binder
14400 | CD71-binding FN3 domain of SEQ ID NO: 334 (designed binder, not shown: small tags and cut ends) MSLPAPKNLVVSRVTEDSARLSWTAPDAAFDSFEIAYQELSLWGEAIVLTVPGSERSYDLTGLKPGTEYWVQIGGVKGGIWSSPLVASFTT
57300 | CD71-binding FN3 domain of SEQ ID NO: 335 (designed binder, not shown: small tags and cut ends) MSLPAPKNLVVSRVTEDSARLSWTAPDAAFDSFFIGYLEPQPPGEAIDLYVPGSERSYDLTGLKPGTEYNVTIQGVKGGFPSLPLVATFTT
425000 | CD71-binding FN3 domain of SEQ ID NO: 342 (designed binder, not shown: small tags and cut ends) MSLPAPKNLVVSRVTEDSARLSWTAPDAAFDSFFIGYLEPQPPGEAIVLTVPGSERSYDLTGLKPGTEYNVTIQGVKGGFPSEPLIANFTT
17200 | CD71-binding FN3 domain of SEQ ID NO: 337 (designed binder, not shown: small tags and cut ends) MSLPAPKNLVVSRVTEDSARLSWTAPDAAFDSFFIGYLEPQPPGEAIHLYVPGSERSYDLTGLKPGTEYNVTIQGVKGGFPSIPLIASFTT
58000 | CD71-binding FN3 domain of SEQ ID NO: 341 (designed binder, not shown: small tags and cut ends) MSLPAPKNLVVSRVTEDSARLSWTAPDAAFDSFFIGYLEPQPPGEAIELYVPGSERSYDLTGLKPGTEYNVTIQGVKGGFPSLPLVAIFTT
30400 | CD71-binding FN3 domain of SEQ ID NO: 343 (designed binder, not shown: small tags and cut ends) MSLPAPKNLVVSRVTEDSARLSWTAPDAAFDSFFIGYLEPQPPGEAIALWVPGSERSYDLTGLKPGTEYNVTIQGVKGGFPSEPLVATFTT
40200 | CD71-binding FN3 domain of SEQ ID NO: 338 (designed binder, not shown: small tags and cut ends) MSLPAPKNLVVSRVTEDSARLSWTAPDAAFDSFEIGYFENLYLGEAIVLTVPGSERSYDLTGLKPGTEYCVYICGVKGGRDSMPLSAIFTT
23600 | CD71-binding FN3 domain of SEQ ID NO: 345 (designed binder, not shown: small tags and cut ends) MSLPAPKNLVVSRVTEDSAHLSWTAPDAAFDSFEIGYFENDYFGEAIVLTVPGSERSYDLTGLKPGTEYVVFIGGVKGGKWSAPLSAIFTT
7050 | CD71-binding FN3 domain of SEQ ID NO: 339 (designed binder, not shown: small tags and cut ends) MSLPAPKNLVVSRVTEDSARLSWTAPDAAFDSFEIGYWEMSYYGEAIVLTVPGSERSYDLTGLKPGTEYGVSIGGVKGGRWSLPLSAIFTT
28300 | CD71-binding FN3 domain of SEQ ID NO: 340 (designed binder, not shown: small tags and cut ends) MSLPAPKNLVVSRVTEDSSRLSWTAPDAAFDSFEIGYFENLYLGEAIVLTVPGSERSYDLTGLKPGTEYWVQIGGVKGGNWSAPLSAIFTT
36900 | CD71-binding FN3 domain of SEQ ID NO: 344 (designed binder, not shown: small tags and cut ends) MSLPAPKNLFVSRVTEDSARLSWTAPDAAFDSFEIGYWENAYKGEAIVLTVPGSERSYDLTGLKPGTEYWVQIGGVKGGNWSAPLSAIFTT
16800 | CD71-binding FN3 domain of SEQ ID NO: 336 (designed binder, not shown: small tags and cut ends) MSLPAPKNLVVSRVTEDSARLSWTAPDAAFDSFNIMYHEHYDNGEAIVLTVPGSERSYDLTGLKPGTEYSVVINGVKGGPHSAPLSAIFTT

target: human serum albumin (human) (UniProt P02768); experiment: primary ELISA of colonies, luminescence; negative control antigen

HSA, RLU [RLU] | Binder
3750 | CD71-binding FN3 domain of SEQ ID NO: 117 (designed binder, not shown: small tags and cut ends) MLPAPKNLVVSRVTEDSARLSWTAPDAAFDSFFIGYLEPQPPGEAIWLLVPGSERSYDLTGLKPGTEYNVTIQGVKGGFPSTPLSAIFTT
3250 | CD71-binding FN3 domain of SEQ ID NO: 107 (designed binder, not shown: small tags and cut ends) MLPAPKNLVVSRVTEDSARLSWTAPDAAFDSFFIGYLEPQPPGEAIGLQVPGSERSYDLTGLKPGTEYNVTIQGVKGGFPSMPLSAIFTT
2650 | CD71-binding FN3 domain of SEQ ID NO: 112 (designed binder, not shown: small tags and cut ends) MLPAPKNLVVSRVTEDSARLSWTAPDAAFDSFFIGYLEPQPPGEAIDLWVPGSERSYDLTGLKPGTEYNVTIQGVKGGFPSMPLSAIFTT
29400 | CD71-binding FN3 domain of SEQ ID NO: 104 (designed binder, not shown: small tags and cut ends) MLPAPKNLVVSRVTEDSARLSWTAPDAAFDSFFIGYLEPQPPGEAIHLIVPGSERSYDLTGQKPGTEYNVTIQGVKGGFPSDPLVASFTT
2600 | CD71-binding FN3 domain of SEQ ID NO: 111 (designed binder, not shown: small tags and cut ends) MLPAPKNLVVSRVTEDSARLSWTAPDAAFDSFFIGYLEPQPPGEAISLWVPGSERSYDLTGLKPGTEYNVTIQGVKGGFPSIPLWAIFTT
3250 | CD71-binding FN3 domain of SEQ ID NO: 109 (designed binder, not shown: small tags and cut ends) MLPAPKNLVVSRVTEDSARLSWTAPDAAFDSFFIGYLEPQPPGEAIILHVPGSERSYDLTGLKPGTEYNVTIQGVKGGFPSLPLNANFTT
5200 | CD71-binding FN3 domain of SEQ ID NO: 115 (designed binder, not shown: small tags and cut ends) MLPAPKNLVVSRVTEDSARLSWTAPDAAFDSFFIGYLEPQPPGEAIDLYVPGSERSYDLTGLKPGIEYNVTIQGVKGGFPSLPLQAHFTT
2800 | CD71-binding FN3 domain of SEQ ID NO: 113 (designed binder, not shown: small tags and cut ends) MLPAPKNLVVSRVTEDSARLSWTAPDAAFDSFFIGYLEPQPPGEAIYLLVPGSERSYDLTGLKPGTEYNVTIQGVKGGFPSDPLSAIFTT
4550 | CD71-binding FN3 domain of SEQ ID NO: 102 (designed binder, not shown: small tags and cut ends) MLPAPKNLVVSRVTEDSARLSWTAPDAAFDSFDIGYTEYGGYGEAIILQVPGSERSYDLTGLKPGTEYWVLIQGVKGGGSSVPLVAYFTT
3000 | CD71-binding FN3 domain of SEQ ID NO: 105 (designed binder, not shown: small tags and cut ends) MLPAPKNLVVSRVTEDSARLSWTAPDAAFDSFHIVYHEPRPSGEAIWLWVPGSERSYDLTGLKPGTEYEVGIVSVKGGDLSVPLSAIFTT
2500 | CD71-binding FN3 domain of SEQ ID NO: 110 (designed binder, not shown: small tags and cut ends) MLPAPKNLVVSRVTEDSARLSWTAPDAAFDSFHIVYHEPRPSGEAIYLEVPGSERSYDLTGLKPGTEYEVGIVSVKGGDLSVPLRAHFTT
11600 | CD71-binding FN3 domain of SEQ ID NO: 114 (designed binder, not shown: small tags and cut ends) MLPAPKNLVVSRVTEDSARLSWTAPDAAFDSFHIVYHEPRPSGEAIWLFVPGSERSYDLTGLKPGTEYEVGIVSVKGGDLSVPLSAIFTT
7750 | CD71-binding FN3 domain of SEQ ID NO: 100 (designed binder, not shown: small tags and cut ends) MLPAPKNLVVSRVTEDSARLSWTAPDAAFDSFYIAYAEPRPDGEAILLLVPGSERSYDLTGLKPGTEYSVLIHGVKGGLLSSPLVASFTT
2750 | CD71-binding FN3 domain of SEQ ID NO: 116 (designed binder, not shown: small tags and cut ends) MLPAPKNLVVSRVTEDSARLSWTAPDAAFDSFYIAYAEPRPDGEAILLLVPGSERSYDLTGLKPGTEYSVLIHGVKGGLLSSPLIAGFTT
18200 | CD71-binding FN3 domain of SEQ ID NO: 103 (designed binder, not shown: small tags and cut ends) MLPAPKNLVVSRVTEDSARLSWTAPDAAFDSFYIAYAEPRPDGEAIILGVPGSERSYDLTGLKPGTEYSVLIHGVKGGLLSSPLSAYSTT
2550 | CD71-binding FN3 domain of SEQ ID NO: 106 (designed binder, not shown: small tags and cut ends) MLPAPKNLVVSRVTEDSARLSWTAPDAVFDSFYIAYAEPRPDGEAIGLYVPGSERSYDLTGLKPGTEYSVLIHGVKGGLLSSPLTASFTT
3350 | CD71-binding FN3 domain of SEQ ID NO: 108 (designed binder, not shown: small tags and cut ends) MLPAPKNLVVSRVTEDSARLSWTAPDAAFDSFYIAYAEPRPDGEAILLQVPGSERSYDLTGLKPGTEYSVLIHGVKGGLLSSPLVAKFTT
4350 | CD71-binding FN3 domain of SEQ ID NO: 101 (designed binder, not shown: small tags and cut ends) MLPAPKNLVVSRVTEDSARLSWTAPDAAFDSFGIGYWERRWYGEAIVLTVPGSERSYDLTGLKPGTEYEVTIRGVKGGGYSGPLSAIFTT
